Experimental data: patent US12534531 (MacroGenics, dated 2026)
Positions count from the first letter of the chain named.

Key:
[1] = molecular target: T1, human PD-1 expressed on the surface of cells (NSO cells expressing human PD-1; MNFAT-luc2/PD-1 Jurkat cells) (human, UniProt Q15116 21-288); experiment: FACS saturation binding to NSO cells expressing PD-1; SM; SD 0.4140
T1 construct: also called cell surface PD-1; PDCD1 transfected NSO cells expressing PD-1

[2] = molecular target: T2, biotinylated-soluble human LAG-3-Fc fusion protein (human, UniProt P18627 23-450, biotinylated (site not stated)); experiment: FACS: inhibition of shLAG-3-Fc binding to MHC II on Daudi cells (column head prints EC50); SM; SD 1.1398
T2 construct: whole entry named; also called shLAG-3; shLAG-3-Fc; not shown: Fc
T2 sequence: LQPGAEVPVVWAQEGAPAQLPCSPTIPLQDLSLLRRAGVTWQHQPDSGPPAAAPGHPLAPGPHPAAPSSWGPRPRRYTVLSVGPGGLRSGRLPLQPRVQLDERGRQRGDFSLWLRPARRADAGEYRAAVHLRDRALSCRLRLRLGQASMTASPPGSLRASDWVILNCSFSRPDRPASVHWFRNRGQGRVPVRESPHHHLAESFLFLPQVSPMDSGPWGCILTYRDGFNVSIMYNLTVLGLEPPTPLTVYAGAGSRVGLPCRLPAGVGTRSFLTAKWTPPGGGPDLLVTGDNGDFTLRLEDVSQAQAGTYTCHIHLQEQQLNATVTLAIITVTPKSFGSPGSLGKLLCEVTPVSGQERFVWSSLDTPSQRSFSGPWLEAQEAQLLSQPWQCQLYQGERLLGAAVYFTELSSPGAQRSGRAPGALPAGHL

[3] = molecular target: T3, human LAG-3 expressed on NSO cells (human, UniProt P18627 29-525); experiment: FACS saturation binding to NSO cells expressing LAG-3; SM; SD 0.5326
T3 sequence: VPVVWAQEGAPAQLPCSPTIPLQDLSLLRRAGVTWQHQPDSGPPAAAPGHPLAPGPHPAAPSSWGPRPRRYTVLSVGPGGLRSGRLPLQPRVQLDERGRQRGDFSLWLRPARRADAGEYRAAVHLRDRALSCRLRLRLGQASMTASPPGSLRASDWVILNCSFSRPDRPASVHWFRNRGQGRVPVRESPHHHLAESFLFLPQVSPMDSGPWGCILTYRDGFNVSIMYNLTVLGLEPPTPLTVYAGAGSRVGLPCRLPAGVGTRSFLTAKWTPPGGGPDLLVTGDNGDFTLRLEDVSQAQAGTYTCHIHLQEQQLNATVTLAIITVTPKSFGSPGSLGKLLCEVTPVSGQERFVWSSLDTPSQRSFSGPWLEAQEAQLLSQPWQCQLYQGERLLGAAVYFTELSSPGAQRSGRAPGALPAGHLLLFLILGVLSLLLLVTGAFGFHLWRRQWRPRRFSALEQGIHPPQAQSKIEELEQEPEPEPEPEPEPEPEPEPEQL

[4] = molecular target: T1, human PD-1 expressed on the surface of …; experiment: FACS: inhibition of sPD-L1 binding to PD-1 on NSO cells; SM; SD 0.1692
[5] = molecular target: T1, human PD-1 expressed on the surface of …; experiment: FACS: inhibition of sPD-L2 binding to PD-1 on NSO cells; SM; SD 0.5869
[6] = molecular target: T1, human PD-1 expressed on the surface of …; experiment: FACS saturation binding on NSO cells expressing human PD-1, goat anti-human-APC, MFI, 1:4 dilutions
[7] = molecular target: T1, human PD-1 expressed on the surface of …; experiment: FACS: inhibition of sPD-L1 binding to PD-1 on NSO cells; SM; SD 0.2337
[8] = molecular target: T1, human PD-1 expressed on the surface of …; experiment: FACS blocking on NSO cells expressing human PD-1, 1:4 dilutions, MFI; blocked ligand: biotinylated sPD-L2, streptavidin-PE
[9] = molecular target: T1, human PD-1 expressed on the surface of …; experiment: FACS: inhibition of sPD-L2 binding to PD-1 on NSO cells; SM; SD 0.2893
[10] = molecular target: T1, human PD-1 expressed on the surface of …; experiment: FACS blocking on NSO cells expressing human PD-1, 1:4 dilutions, MFI; blocked ligand: biotinylated sPD-L1, streptavidin-PE
[11] = molecular target: T1, human PD-1 expressed on the surface of …; experiment: FACS saturation binding to NSO cells expressing PD-1; SM; SD 0.3958
[12] = molecular target: soluble cynomolgus monkey PD-1 (scyno PD-1 hFc) cleaved to remove Fc portion (cynomolgus monkey, UniProt B0LAJ3 25-170); experiment: Biacore, mAb captured on F(ab)2 goat anti-human Fc, analyte scyno PD-1 hFc cleaved of Fc
[13] = molecular target: T4, soluble human PD-1 (the extracellular domain of human PD-1 fused to a His tag) (human, UniProt Q15116 25-170); experiment: Biacore, mAb captured on F(ab)2 goat anti-human Fc, analyte shPD-1 His
T4 construct: also called shPD-1 His; shPD-1-His; not shown: His tag

[14] = molecular target: T1, human PD-1 expressed on the surface of …; experiment: FACS: inhibition of sPD-L1 binding to PD-1 on NSO cells; SM; SD 0.1485
[15] = molecular target: T1, human PD-1 expressed on the surface of …; experiment: FACS: inhibition of sPD-L2 binding to PD-1 on NSO cells; SM; SD 0.4285
[16] = molecular target: T3, human LAG-3 expressed on NSO cells; experiment: FACS saturation binding to NSO cells expressing LAG-3; SM; SD 0.2231
[17] = molecular target: T1, human PD-1 expressed on the surface of …; experiment: FACS saturation binding to NSO cells expressing PD-1; SM; SD 0.4324
[18] = molecular target: T2, biotinylated-soluble human LAG-3-Fc …; experiment: FACS: inhibition of shLAG-3-Fc binding to MHC II on Daudi cells (column head prints EC50); SM; SD 1.6465
[19] = molecular target: T1, human PD-1 expressed on the surface of …; experiment: FACS: inhibition of sPD-L2 binding to PD-1 on NSO cells; SM; SD 0.3154
[20] = molecular target: T1, human PD-1 expressed on the surface of …; experiment: FACS: inhibition of sPD-L1 binding to PD-1 on NSO cells; SM; SD 0.0007
[21] = molecular target: T2, biotinylated-soluble human LAG-3-Fc …; experiment: FACS: inhibition of shLAG-3-Fc binding to MHC II on Daudi cells (column head prints EC50); SM; SD 0.1104
[22] = molecular target: T1, human PD-1 expressed on the surface of …; experiment: FACS saturation binding to NSO cells expressing PD-1; single experiment
[23] = molecular target: T3, human LAG-3 expressed on NSO cells; experiment: FACS saturation binding to NSO cells expressing LAG-3; single experiment

T1 sequence (Q15116 21-288): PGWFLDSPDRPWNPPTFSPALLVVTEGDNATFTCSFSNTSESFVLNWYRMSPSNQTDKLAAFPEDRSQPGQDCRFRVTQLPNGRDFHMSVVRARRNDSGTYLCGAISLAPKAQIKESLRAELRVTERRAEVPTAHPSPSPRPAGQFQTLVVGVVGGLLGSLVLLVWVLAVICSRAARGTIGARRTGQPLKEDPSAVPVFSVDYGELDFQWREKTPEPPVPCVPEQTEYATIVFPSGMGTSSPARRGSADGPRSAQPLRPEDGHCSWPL
Sequence of soluble cynomolgus monkey PD-1 (scyno PD-1 hFc) cleaved to remove Fc portion (B0LAJ3 entry or part of it limits assumed): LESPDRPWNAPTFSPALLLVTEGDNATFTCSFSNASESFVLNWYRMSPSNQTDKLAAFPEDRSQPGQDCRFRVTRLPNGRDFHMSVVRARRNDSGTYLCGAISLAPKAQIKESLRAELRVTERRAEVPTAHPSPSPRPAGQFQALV
T4 sequence (Q15116 25-170): as the sequence (B0LAJ3 entry or part of it limits assumed) above, with E2D, A10P, L19V, A35T, R75Q, A144T counted along it

B1: DART D (bispecific antibody, human IgG4 S228P, kappa)
chain 1: EIVLTQSPATLSLSPGERATLSCRASESVDNYGMSFMNWFQQKPGQPPKLLIHAASNQGSGVPSRFSGSGSGTDFTLTISSLEPEDFAVYFCQQSKEVPYTFGGGTKVEIKGGGSGGGGQVQLVQSGAEVKKPGASVKVSCKASGYTFTNYGMNWVRQAPGQGLEWMGWINTYTGESTYADDFEGRFVFSMDTSASTAYLQISSLKAEDTAVYYCARESLYDYYSMDYWGQGTTVTVSSLGGGSGASTKGPSVFPLAPCSRSTSESTAALGCLVKDYFPEPVTVSWNSGALTSGVHTFPAVLQSSGLYSLSSVVTVPSSSLGTKTYTCNVDHKPSNTKVDKRVESKYGPPCPPCPAPEFLGGPSVFLFPPKPKDTLYITREPEVTCVVVDVSQEDPEVQFNWYVDGVEVHNAKTKPREEQFNSTYRVVSVLTVLHQDWLNGKEYKCKVSNKGLPSSIEKTISKAKGQPREPQVYTLPPSQEEMTKNQVSLTCLVKGFYPSDIAVEWESNGQPENNYKTTPPVLDSDGSFFLYSRLTVDKSRWQEGNVFSCSVMHEALHNHYTQKSLSLSLG
chain 2: DIVMTQTPLSLSVTPGQPASISCKSSQSLLHSDAKTYLNWLLQKPGQPPERLIYLVSELDSGVPDRFSGSGSGTDFTLKISRVEAEDVGVYYCWQGTHFPYTFGGGTKVEIKGGGSGGGGQVQLVQSGAEVKKPGASVKVSCKASGYSFTSYWMNWVRQAPGQGLEWIGVIHPSDSETWLDQKFKDRVTITVDKSTSTAYMELSSLRSEDTAVYYCAREHYGTSPFAYWGQGTLVTVSSLGGGSGRTVAAPSVFIFPPSDEQLKSGTASVVCLLNNFYPREAKVQWKVDNALQSGNSQESVTEQDSKDSTYSLSSTLTLSKADYEKHKVYACEVTHQGLSSPVTKSFNRGEC
[1]
  EC50: 2230 nM
[2]
  IC50: 1180 nM
[3]
  EC50: 898 nM
[4]
  IC50: 1550 nM
[5]
  IC50: 3130 nM

B2: hPD-1 mAb 7 (1.2) IgG1 (AA) (antibody)
heavy: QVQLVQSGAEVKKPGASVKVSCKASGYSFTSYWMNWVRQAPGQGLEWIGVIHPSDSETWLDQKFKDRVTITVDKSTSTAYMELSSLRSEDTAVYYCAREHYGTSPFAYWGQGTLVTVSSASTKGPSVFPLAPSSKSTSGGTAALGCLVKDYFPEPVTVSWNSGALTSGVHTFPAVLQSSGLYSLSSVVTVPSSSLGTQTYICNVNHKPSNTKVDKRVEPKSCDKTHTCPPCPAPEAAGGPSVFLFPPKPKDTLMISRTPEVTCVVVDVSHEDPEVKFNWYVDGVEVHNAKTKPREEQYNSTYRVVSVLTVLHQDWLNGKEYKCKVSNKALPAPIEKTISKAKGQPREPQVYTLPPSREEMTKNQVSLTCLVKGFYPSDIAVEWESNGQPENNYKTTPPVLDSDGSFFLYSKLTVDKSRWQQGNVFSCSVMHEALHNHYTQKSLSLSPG
light: EIVLTQSPATLSLSPGERATLSCRASESVDNYGMSFMNWFQQKPGQPPKLLIHAASNQGSGVPSRFSGSGSGTDFTLTISSLEPEDFAVYFCQQSKEVPYTFGGGTKVEIKRTVAAPSVFIFPPSDEQLKSGTASVVCLLNNFYPREAKVQWKVDNALQSGNSQESVTEQDSKDSTYSLSSTLTLSKADYEKHKVYACEVTHQGLSSPVTKSFNRGEC
notes: also called h1PD-1 mAb 7(1.2) IgG1 (AA)
[6]
  EC50 (read off the curve): ~0.08 µg/mL
[7]
  IC50: 732 nM
[8]
  IC50 (read off the curve): ~0.02 ug/test
[9]
  IC50: 977 nM
[10]
  IC50 (read off the curve): ~0.01 ug/test
[11]
  EC50: 1090 nM
[12]
  Kd: 4.9 nM
[13]
  Kd: 1.5 nM

B3: DART A (bispecific antibody, human IgG4 S228P)
chain 1: DIVMTQTPLSLSVTPGQPASISCKSSQSLLHSDAKTYLNWLLQKPGQPPERLIYLVSELDSGVPDRFSGSGSGTDFTLKISRVEAEDVGVYYCWQGTHFPYTFGGGTKVEIKGGGSGGGGQVQLVQSGAEVKKPGASVKVSCKASGYSFTSYWMNWVRQAPGQGLEWIGVIHPSDSETWLDQKFKDRVTITVDKSTSTAYMELSSLRSEDTAVYYCAREHYGTSPFAYWGQGTLVTVSSGGCGGGEVAACEKEVAALEKEVAALEKEVAALEKESKYGPPCPPCPAPEFLGGPSVFLFPPKPKDTLYITREPEVTCVVVDVSQEDPEVQFNWYVDGVEVHNAKTKPREEQFNSTYRVVSVLTVLHQDWLNGKEYKCKVSNKGLPSSIEKTISKAKGQPREPQVYTLPPSQEEMTKNQVSLTCLVKGFYPSDIAVEWESNGQPENNYKTTPPVLDSDGSFFLYSRLTVDKSRWQEGNVFSCSVMHEALHNHYTQKSLSLSLG
chain 2: EIVLTQSPATLSLSPGERATLSCRASESVDNYGMSFMNWFQQKPGQPPKLLIHAASNQGSGVPSRFSGSGSGTDFTLTISSLEPEDFAVYFCQQSKEVPYTFGGGTKVEIKGGGSGGGGQVQLVQSGAEVKKPGASVKVSCKASGYTFTNYGMNWVRQAPGQGLEWMGWINTYTGESTYADDFEGRFVFSMDTSASTAYLQISSLKAEDTAVYYCARESLYDYYSMDYWGQGTTVTVSSGGCGGGKVAACKEKVAALKEKVAALKEKVAALKE
[14]
  IC50: 964 nM
[15]
  IC50: 1630 nM
[16]
  EC50: 840 nM
[17]
  EC50: 1930 nM
[18]
  IC50: 1380 nM

B4: DART B (bispecific antibody, human IgG4 S228P)
chain 1: B3 chain 1 with A34G
chain 2: B3 chain 2
[19]
  IC50: 2120 nM
[20]
  IC50: 1150 nM
[21]
  IC50: 408 nM
[22]
  EC50: 1760 nM
  EC90: 12300 nM
[23]
  EC50: 1080 nM
